Measurements taken from PMC9894173 (Proceedings of the National Academy of Sciences of the …, 2022).

Biological target: His6-FLAG-MBP-tagged DHX15 (aa 113–795) (human, UniProt O43143 113-795)
Test: co-IP

His6-FLAG-MBP-tagged DHX15 (aa 113–795), sequence (O43143 113-795): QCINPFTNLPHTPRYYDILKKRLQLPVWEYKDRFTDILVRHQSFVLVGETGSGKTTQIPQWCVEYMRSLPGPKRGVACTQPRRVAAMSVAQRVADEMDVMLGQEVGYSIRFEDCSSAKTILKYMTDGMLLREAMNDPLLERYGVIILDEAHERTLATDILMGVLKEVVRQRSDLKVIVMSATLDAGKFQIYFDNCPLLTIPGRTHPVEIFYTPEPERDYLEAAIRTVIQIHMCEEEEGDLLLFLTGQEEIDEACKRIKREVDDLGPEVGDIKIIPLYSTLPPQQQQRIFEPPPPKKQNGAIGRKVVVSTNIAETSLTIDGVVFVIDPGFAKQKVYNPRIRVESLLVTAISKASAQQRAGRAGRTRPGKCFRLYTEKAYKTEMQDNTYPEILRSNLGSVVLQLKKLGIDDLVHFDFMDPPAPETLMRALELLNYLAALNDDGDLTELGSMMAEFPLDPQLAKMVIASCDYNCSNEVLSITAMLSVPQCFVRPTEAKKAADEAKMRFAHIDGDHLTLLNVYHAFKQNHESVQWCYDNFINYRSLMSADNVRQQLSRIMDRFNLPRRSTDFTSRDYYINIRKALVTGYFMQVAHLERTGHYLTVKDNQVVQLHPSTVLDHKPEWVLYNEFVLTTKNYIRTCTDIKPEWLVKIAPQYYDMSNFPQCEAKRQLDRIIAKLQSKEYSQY

binding result: binds
B1: His6-HA-tagged SUGP1 WT (full length) (natural protein)
chain: MSLKMDNRDVAGKANRWFGVAPPKSGKMNMNILHQEELIAQKKREIEAKMEQKAKQNQVASPQPPHPGEITNAHNSSCISNKFANDGSFLQQFLKLQKAQTSTDAPTSAPSAPPSTPTPSAGKRSLLISRRTGLGLASLPGPVKSYSHAKQLPVAHRPSVFQSPDEDEEEDYEQWLEIKVSPPEGAETRKVIEKLARFVAEGGPELEKVAMEDYKDNPAFAFLHDKNSREFLYYRKKVAEIRKEAQKSQAASQKVSPPEDEEVKNLAEKLARFIADGGPEVETIALQNNRENQAFSFLYEPNSQGYKYYRQKLEEFRKAKASSTGSFTAPDPGLKRKSPPEALSGSLPPATTCPASSTPAPTIIPAPAAPGKPASAATVKRKRKSRWGPEEDKVELPPAELVQRDVDASPSPLSVQDLKGLGYEKGKPVGLVGVTELSDAQKKQLKEQQEMQQMYDMIMQHKRAMQDMQLLWEKAVQQHQHGYDSDEEVDSELGTWEHQLRRMEMDKTREWAEQLTKMGRGKHFIGDFLPPDELEKFMETFKALKEGREPDYSEYKEFKLTVENIGYQMLMKMGWKEGEGLGSEGQGIKNPVNKGTTTVDGAGFGIDRPAELSKEDDEYEAFRKRMMLAYRFRPNPLNNPRRPYY
